Source: paper PMC11087952, “Biochemical characterization of Escherichia coli DnaC variants that alter DnaB helicase loading onto DNA” (The Journal of Biological Chemistry, 2024)

Columns and labels:
[1] = biological target: T1, Escherichia coli DnaB replicative helicase (wild-type) (E. coli, UniProt P0ACB0 1-471); experiment: SEC; 10 nmol DnaB and 12 nmol DnaC (1.2:1 DnaC:DnaB) in 20 mM Tris-HCl pH 8.5, 0.2 M NaCl, 5 mM MgCl2, 1 mM BME, 1 mM ATP; analytical size exclusion column (Increase 10/300 GL); peak fractions analysed by PAGE for DnaB and DnaC; settings: both partners purified
T1 construct: DnaB replicative DNA helicase, E. coli, wild-type; The introduction describes DnaB as a closed ring-shaped hexamer; also called DnaB helicase

DnaC (wild-type) = biological target: T2, DnaC (wild-type) (Escherichia coli, UniProt P0AEF0 1-245); experiment: fluorescence anisotropy; 5 mM Mg2+, 2 mM ATP; 50 mM HEPES-KOH pH 7.5, 125 mM KCl, 10% glycerol, 5 mM MgCl2, 2 mM ATP, 2 mM DTT, 0.1 mg/ml BSA, 10 nM DNA, 0-50 uM DnaC; 37 C 15 min, read at 25 C; saturation; settings: protein: recombinant; tags: 6XHis-MBP removed by TEV; single strand
T2 sequence: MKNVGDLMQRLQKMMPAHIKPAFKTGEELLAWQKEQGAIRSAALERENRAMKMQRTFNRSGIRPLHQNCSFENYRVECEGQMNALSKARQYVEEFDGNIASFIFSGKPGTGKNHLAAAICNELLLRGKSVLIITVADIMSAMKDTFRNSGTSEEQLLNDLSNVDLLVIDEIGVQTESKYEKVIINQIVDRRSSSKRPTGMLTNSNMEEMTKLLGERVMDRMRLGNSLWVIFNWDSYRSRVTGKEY

DnaC 809 = biological target: T3, DnaC 809 (Escherichia coli, UniProt P0AEF0 1-245, E176G); experiment: fluorescence anisotropy; 5 mM Mg2+, 2 mM ATP; similar to wild-type; 50 mM HEPES-KOH pH 7.5, 125 mM KCl, 10% glycerol, 5 mM MgCl2, 2 mM ATP, 2 mM DTT, 0.1 mg/ml BSA, 10 nM DNA, 0-50 uM DnaC; 37 C 15 min, read at 25 C; saturation; settings: protein: recombinant; tags: 6XHis-MBP, TEV cleaved; periplasmic localization signal on expression construct; single strand
T3 sequence: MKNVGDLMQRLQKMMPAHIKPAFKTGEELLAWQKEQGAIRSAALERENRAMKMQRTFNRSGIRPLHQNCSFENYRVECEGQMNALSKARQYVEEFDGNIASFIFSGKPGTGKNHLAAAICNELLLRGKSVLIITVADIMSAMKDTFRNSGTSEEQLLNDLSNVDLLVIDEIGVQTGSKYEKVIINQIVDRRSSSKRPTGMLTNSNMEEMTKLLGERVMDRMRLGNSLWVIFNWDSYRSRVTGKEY

DnaC 1331 = biological target: T4, DnaC 1331 (Escherichia coli, UniProt P0AEF0 1-245, A84T); experiment: as above; settings: protein: recombinant; tags: 6XHis-MBP, TEV cleaved; periplasmic localization signal on expression construct; single strand
T4 sequence: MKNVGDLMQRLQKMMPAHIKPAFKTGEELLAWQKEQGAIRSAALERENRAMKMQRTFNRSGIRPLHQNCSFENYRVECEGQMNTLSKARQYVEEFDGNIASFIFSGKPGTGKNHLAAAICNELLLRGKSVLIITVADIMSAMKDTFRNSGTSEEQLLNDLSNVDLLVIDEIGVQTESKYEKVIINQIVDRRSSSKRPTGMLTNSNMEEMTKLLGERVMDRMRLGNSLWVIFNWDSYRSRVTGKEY

DnaC 809,820 = biological target: T5, DnaC 809,820 (Escherichia coli, UniProt P0AEF0 1-245, E176G;K178N); experiment: as above; settings: protein: recombinant; tags: 6XHis-MBP, TEV cleaved; periplasmic localization signal on expression construct; single strand
T5 sequence: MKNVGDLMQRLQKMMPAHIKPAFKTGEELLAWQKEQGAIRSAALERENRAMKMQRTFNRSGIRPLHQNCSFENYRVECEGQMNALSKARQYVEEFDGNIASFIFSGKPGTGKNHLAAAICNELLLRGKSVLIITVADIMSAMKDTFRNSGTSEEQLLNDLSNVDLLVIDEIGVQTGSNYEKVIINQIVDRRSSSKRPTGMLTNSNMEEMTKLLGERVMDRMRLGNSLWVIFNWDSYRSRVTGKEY

T1 sequence (P0ACB0 whole entry): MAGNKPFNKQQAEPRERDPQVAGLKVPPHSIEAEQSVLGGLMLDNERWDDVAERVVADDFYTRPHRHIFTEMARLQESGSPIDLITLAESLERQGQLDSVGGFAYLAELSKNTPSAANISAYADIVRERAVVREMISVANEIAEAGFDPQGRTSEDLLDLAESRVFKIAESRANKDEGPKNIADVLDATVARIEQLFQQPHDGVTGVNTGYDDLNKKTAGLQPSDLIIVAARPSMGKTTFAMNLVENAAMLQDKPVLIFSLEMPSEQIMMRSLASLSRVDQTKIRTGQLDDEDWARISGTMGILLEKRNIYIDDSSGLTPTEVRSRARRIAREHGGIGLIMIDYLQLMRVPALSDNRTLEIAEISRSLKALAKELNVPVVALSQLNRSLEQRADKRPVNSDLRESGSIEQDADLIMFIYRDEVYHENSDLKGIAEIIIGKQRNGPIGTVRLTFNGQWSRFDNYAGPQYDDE

B1: DnaC 809 (E176G) (natural protein, E. coli, UniProt P0AEF0 1-245, looked up)
chain: MKNVGDLMQRLQKMMPAHIKPAFKTGEELLAWQKEQGAIRSAALERENRAMKMQRTFNRSGIRPLHQNCSFENYRVECEGQMNALSKARQYVEEFDGNIASFIFSGKPGTGKNHLAAAICNELLLRGKSVLIITVADIMSAMKDTFRNSGTSEEQLLNDLSNVDLLVIDEIGVQTGSKYEKVIINQIVDRRSSSKRPTGMLTNSNMEEMTKLLGERVMDRMRLGNSLWVIFNWDSYRSRVTGKEY
notes: DnaC helicase loader, E. coli, with E176G; Point mutation introduced by site-directed mutagenesis; the allele was first isolated as a suppressor of priA deficiency; also called product of dnaC809
- binding result [1]: binds

B2: DnaC 809,820 (E176G, K178N) (natural protein, E. coli, UniProt P0AEF0 1-245, looked up)
chain: MKNVGDLMQRLQKMMPAHIKPAFKTGEELLAWQKEQGAIRSAALERENRAMKMQRTFNRSGIRPLHQNCSFENYRVECEGQMNALSKARQYVEEFDGNIASFIFSGKPGTGKNHLAAAICNELLLRGKSVLIITVADIMSAMKDTFRNSGTSEEQLLNDLSNVDLLVIDEIGVQTGSNYEKVIINQIVDRRSSSKRPTGMLTNSNMEEMTKLLGERVMDRMRLGNSLWVIFNWDSYRSRVTGKEY
notes: DnaC helicase loader, E. coli, with E176G and K178N; Point mutations introduced by site-directed mutagenesis; also called product of dnaC809,820
- binding result [1]: binds

B3: DnaC 811 (I184F) (natural protein, E. coli, UniProt P0AEF0 1-245, looked up)
chain: MKNVGDLMQRLQKMMPAHIKPAFKTGEELLAWQKEQGAIRSAALERENRAMKMQRTFNRSGIRPLHQNCSFENYRVECEGQMNALSKARQYVEEFDGNIASFIFSGKPGTGKNHLAAAICNELLLRGKSVLIITVADIMSAMKDTFRNSGTSEEQLLNDLSNVDLLVIDEIGVQTESKYEKVIFNQIVDRRSSSKRPTGMLTNSNMEEMTKLLGERVMDRMRLGNSLWVIFNWDSYRSRVTGKEY
notes: DnaC helicase loader, E. coli, with I184F; Point mutation introduced by site-directed mutagenesis; also called product of dnaC811
- binding result [1]: binds

B4: dT20 (ssDNA)
DNA: TTTTTTTTTTTTTTTTTTTT
- binding result (DnaC (wild-type)): binds
- binding result (DnaC 809): binds
- binding result (DnaC 1331): binds
- binding result (DnaC 809,820): binds
